Publication PMC4188797 (Neuropharmacology, 2014)

Target: the molecule itself
Test: SDS-PAGE and immunoblot of dimer bands in subcellular fractions

B1: metabotropic glutamate receptor 1 splice variant mGluR1b (endogenous, rat brain) (receptor, rat (endogenous in rat brain), UniProt P23385-2 19-906, looked up)
chain: LPRMPDRKVLLAGASSQRSVARMDGDVIIGALFSVHHQPPAEKVPERKCGEIREQYGIQRVEAMFHTLDKINADPVLLPNITLGSEIRDSCWHSSVALEQSIEFIRDSLISIRDEKDGLNRCLPDGQTLPPGRTKKPIAGVIGPGSSSVAIQVQNLLQLFDIPQIAYSATSIDLSDKTLYKYFLRVVPSDTLQARAMLDIVKRYNWTYVSAVHTEGNYGESGMDAFKELAAQEGLCIAHSDKIYSNAGEKSFDRLLRKLRERLPKARVVVCFCEGMTVRGLLSAMRRLGVVGEFSLIGSDGWADRDEVIEGYEVEANGGITIKLQSPEVRSFDDYFLKLRLDTNTRNPWFPEFWQHRFQCRLPGHLLENPNFKKVCTGNESLEENYVQDSKMGFVINAIYAMAHGLQNMHHALCPGHVGLCDAMKPIDGRKLLDFLIKSSFVGVSGEEVWFDEKGDAPGRYDIMNLQYTEANRYDYVHVGTWHEGVLNIDDYKIQMNKSGMVRSVCSEPCLKGQIKVIRKGEVSCCWICTACKENEFVQDEFTCRACDLGWWPNAELTGCEPIPVRYLEWSDIESIIAIAFSCLGILVTLFVTLIFVLYRDTPVVKSSSRELCYIILAGIFLGYVCPFTLIAKPTTTSCYLQRLLVGLSSAMCYSALVTKTNRIARILAGSKKKICTRKPRFMSAWAQVIIASILISVQLTLVVTLIIMEPPMPILSYPSIKEVYLICNTSNLGVVAPVGYNGLLIMSCTYYAFKTRNVPANFNEAKYIAFTMYTTCIIWLAFVPIYFGSNYKIITTCFAVSLSVTVALGCMFTPKMYIIIAKPERNVRSAFTTSDVVRMHVGDGKLPCRSNTFLNIFRRKKPGAGNAKKRQPEFSPSSQCPSAHAQL
- stoichiometry N: 2
